The source of these data is patent US9599605 (BOSTON MEDICAL CENTER, dated 2017).

The target of assay [1] is Endogenous mouse STIM1 (mouse) (UniProt P70302). The assay can be described thus: cell-based or functional assay.
For assay [2], the target named is T1, Endogenous STIM1 from extracts of Jurkat T lymphocytes (human, UniProt Q13586 23-685).
T1 construct: Prey protein in a cell lysate, detected by Western blot
Kind of assay: pull-down on SNAP-immobilized bait, Western blot. On the procedure:
(§1) A: with full-sized original images of immunoblots (B and C).
(§2) The cells were harvested 48 h after transfection, lysed on ice in lysis buffer (25 mM Tris-HCl, pH 7.5, 150 mM NaCl, 0.5% NP-40, 5% glycerol, 2 mM DTT, 1×HALT Protease inhibitors cocktail (Pierce), 1 mM PMSF) and the extracts were cleared by centrifugation for 15 min at 16,000 g at 4° C. Each SNAP-tagged protein was covalently immobilized by incubating ~800 µL of the extract with 25 µL bed volume of SNAP Capture Resin (New England Biolabs), equilibrated with Resin Wash Buffer (RWB; 25 mM Tris-HCl, pH 7.5, 150 mM NaCl, 5% glycerol), for 16 h at 6° C. Control sample of each extract was incubated under the same conditions in the absence of the resin. Following immobilization, the resin was collected in the mini spin column (Pierce), washed 5 times on ice with 600 µL of RWB, combined with the prey protein extract, and incubated with orbital mixing at ~600-800 rpm for 6 h at 4° C.

Assay [3] has as its target T2, Overexpressed ^YFPSTIM1 from extracts of FreeStyle 293-F cells (UniProt Q13586 23-685).
T2 construct: not shown: YFP of the YFPSTIM1 construct (gift from Dr. T. Meyer)
Kind of assay: pull-down on SNAP-immobilized bait, Western blot. The protocol:
as §1, §2
On the technique in general: A western blot detects proteins with antibodies after separation by electrophoresis.

T2 sequence (Q13586 23-685): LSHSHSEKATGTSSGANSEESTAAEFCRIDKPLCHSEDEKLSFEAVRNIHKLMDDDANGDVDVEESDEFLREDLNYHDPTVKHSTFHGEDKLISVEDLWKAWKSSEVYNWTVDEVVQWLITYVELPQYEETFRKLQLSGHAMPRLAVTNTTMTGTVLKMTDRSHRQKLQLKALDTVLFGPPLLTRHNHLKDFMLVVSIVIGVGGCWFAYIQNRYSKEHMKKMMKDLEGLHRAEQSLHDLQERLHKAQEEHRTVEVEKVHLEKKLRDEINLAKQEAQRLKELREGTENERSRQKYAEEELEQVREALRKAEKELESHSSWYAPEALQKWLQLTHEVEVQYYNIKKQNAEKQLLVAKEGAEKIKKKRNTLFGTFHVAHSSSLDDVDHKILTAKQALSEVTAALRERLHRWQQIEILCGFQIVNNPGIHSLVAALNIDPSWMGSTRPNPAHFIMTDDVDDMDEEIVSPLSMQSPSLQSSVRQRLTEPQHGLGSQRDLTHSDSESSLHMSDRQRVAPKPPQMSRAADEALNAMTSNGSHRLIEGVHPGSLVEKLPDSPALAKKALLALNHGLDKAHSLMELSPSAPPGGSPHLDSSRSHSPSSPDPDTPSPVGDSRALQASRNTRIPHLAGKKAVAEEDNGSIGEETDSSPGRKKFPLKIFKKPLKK
T1 sequence (Q13586 23-685 limits assumed): as the sequence (Q13586 23-685) above
Chain of Endogenous mouse STIM1 (mouse) (P70302 23-685 limits assumed): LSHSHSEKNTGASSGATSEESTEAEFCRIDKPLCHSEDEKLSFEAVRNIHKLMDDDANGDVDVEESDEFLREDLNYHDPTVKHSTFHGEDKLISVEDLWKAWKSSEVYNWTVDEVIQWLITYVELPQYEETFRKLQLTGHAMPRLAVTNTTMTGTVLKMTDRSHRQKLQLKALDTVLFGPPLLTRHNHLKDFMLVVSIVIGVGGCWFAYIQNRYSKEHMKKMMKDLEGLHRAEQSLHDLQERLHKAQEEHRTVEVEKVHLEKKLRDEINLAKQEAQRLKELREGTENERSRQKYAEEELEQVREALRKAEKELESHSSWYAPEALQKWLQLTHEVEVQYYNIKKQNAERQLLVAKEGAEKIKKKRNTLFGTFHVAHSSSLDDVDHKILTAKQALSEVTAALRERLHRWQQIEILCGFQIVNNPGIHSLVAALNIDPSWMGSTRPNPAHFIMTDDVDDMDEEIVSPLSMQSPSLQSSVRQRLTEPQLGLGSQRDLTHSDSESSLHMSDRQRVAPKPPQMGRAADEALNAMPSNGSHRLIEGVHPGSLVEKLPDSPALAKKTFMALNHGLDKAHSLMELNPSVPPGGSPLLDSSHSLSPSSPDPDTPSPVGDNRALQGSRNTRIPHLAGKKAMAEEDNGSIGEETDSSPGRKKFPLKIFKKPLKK

Turning to “N-terminally truncated endogenous mouse PLA2g6(L) of KO^Ex2 mice (from UniProt P97819 179-807) (enzyme)”, the peak of Ca^2+ release caused by ionomycin in MEFs from KO^Ex2 mice compared to WT in assay [1] worked out at 60%.

B1: C-terminally SNAP-tagged N-terminally truncated human PLA2g6(L)^179-806 (enzyme)
chain: MDVTDYKGETVFHYAVQGDNSQVLQLLGRNAVAGLNQVNNQGLTPLHLACQLGKQEMVRVLLLCNARCNIMGPNGYPIHSAMKFSQKGCAEMIISMDSSQIHSKDPRYGASPLHWAKNAEMARMLLKRGCNVNSTSSAGNTALHVAVMRNRFDCAIVLLTHGANADARGEHGNTPLHLAMSKDNVEMIKALIVFGAEVDTPNDFGETPTFLASKIGRLVTRKAILTLLRTVGAEYCFPPIHGVPAEQGSAAPHHPFSLERAQPPPISLNNLELQDLMHISRARKPAFILGSMRDEKRTHDHLLCLDGGGVKGLIIIQLLIAIEKASGVATKDLFDWVAGTSTGGILALAILHSKSMAYMRGMYFRMKDEVFRGSRPYESGPLEEFLKREFGEHTKMTDVRKPKVMLTGTLSDRQPAELHLFRNYDAPETVREPRFNQNVNLRPPAQPSDQLVWRAARSSGAAPTYFRPNGRFLDGGLLANNPTLDAMTEIHEYNQDLIRKGQANKVKKLSIVVSLGTGRSPQVPVTCVDVFRPSNPWELAKTVFGAKELGKMVVDCCTDPDGRAVDRARAWCEMVGIQYFRLNPQLGTDIMLDEVSDTVLVNALWETEVYIYEHREEFQKLIQLLLSP
modifications: covalently immobilized on SNAP Capture Resin through the SNAP tag ; Covalently immobilised on SNAP Capture Resin through the C-terminal SNAP tag, which is not in the letters
notes: Mimics the N-terminally truncated protein expected in KO^Ex2 mice; not shown: C-terminal SNAP tag and the vector linker of pSNAP-tag(m) (New England Biolabs)
As for B1, the binding result in assay [2] and in assay [3] was “no binding” each time.
